{"source": "patent US9873895B2", "about": "“Production of 1,3-dienes by enzymatic conversion of 3-hydroxyalk 4-enoates and/or 3-phosphonoxyalk-4-enoates” (Scientist of Fortune S.A., priority 2011, dated 2018)", "assay": "1,3-butadiene production from 3-phosphonoxypent-4-enoate by using a terpene synthase (headspace GC-FID)", "type": "biochemical", "settings": "5 mg/ml enzyme, 50 mM 3-phosphonoxypent-4-enoate, 37° C., 24 hours", "description": "The reactions were performed in sealed vials. The total volume was 0.5 ml. Final concentrations were 5 mg/ml enzyme, 50 mM 3-phosphonoxypent-4-enoate, 4 mM DTT, 50 mM MgCl2, 50 mM KCl, 50 mM Tris-HCl buffer pH 7.5. The incubation was carried out at 37° C. for 24 h. The control reactions without enzyme or without substrate were performed in parallel under the same conditions.\nOne ml of the gaseous phase of the reaction was collected and analyzed by Gas-Chromatography with Flame Ionization Detector (GC-FID) ((Brucker GC 450) using a RTX-alumina column (Varian), with an isocratic elution at 130° C. and nitrogen as carrier gas at flow rate of 1.5 ml/min. The retention of commercial 1,3-butadiene (Sigma) in these conditions was 7.4 min.", "data": [{"molecule": "isoprene synthase from Pueraria montana var. lobata: purified His-tagged isoprene synthase (terpene synthase), Uniprot Q6EJ97, SEQ ID NO: 30, expressed in E. coli (protein, listed as Pueraria montana, His tag; var. lobata) MCATSSQFTQITEHNSRRSANYQPNLWNFEFLQSLENDLKVEKLEEKATKLEEEVRCMINRVDTQPLSLLELIDDVQRLGLTYKFEKDIIKALENIVLLDENKKNKSDLHATALSFRLLRQHGFEVSQDVFERFKDKEGGFSGELKGDVQGLLSLYEASYLGFEGENLLEEARTFSITHLKNNLKEGINTKVAEQVSHALELPYHQRLHRLEARWFLDKYEPKEPHHQLLLELAKLDFNMVQTLHQKELQDLSRWWTEMGLASKLDFVRDRLMEVYFWALGMAPDPQFGECRKAVTKMFGLVTIIDDVYDVYGTLDELQLFTDAVERWDVNAINTLPDYMKLCFLALYNTVNDTSYSILKEKGHNNLSYLTKSWRELCKAFLQEAKWSNNKIIPAFSKYLENASVSSSGVALLAPSYFSVCQQQEDISDHALRSLTDFHGLVRSSCVIFRLCNDLATSAAELERGETTNSIISYMHENDGTSEEQAREELRKLIDAEWKKMNRERVSDSTLLPKAFMEIAVNMARVSHCTYQYGDGLGRPDYATENRIKLLLIDPFPINQLMYV", "values": [{"measurement": "ratio of butadiene produced in the presence of isoprene synthase versus in the absence of enzyme (butadiene peak areas)", "result": "about 5 fold"}]}]}
